How the values were obtained:
[1] = Onset of melting temperature (Tm, Onset) by differential scanning calorimetry (DSC); format: physicochemical; settings: BIF 2 mg/mL
Method: Biophysical developability/high-throughput profiling studies are conducted on 2 mg/mL formulations of BIF in different buffer matrices and pH conditions. The onset of melting temperature Tm (Tm, Onset) was measured using differential scanning calorimetry (DSC). Tm, Onset is the temperature at which a folded protein starts to lose its native conformation, i.e., the higher the Tm, Onset, the less susceptible a protein to denaturation.

Isoelectric point of BIF = format: physicochemical

B1: insulin efsitora alfa (protein)
chain: FVNQHLCGSHLVEALELVCGERGFHYGGGGGGSGGGGGIVEQCCTSTCSLDQLENYCGGGGGQGGGGQGGGGQGGGGGECPPCPAPPVAGPSVFLFPPKPKDTLMISRTPEVTCVVVDVSHEDPEVQFNWYVDGVEVHNAKTKPREEQFNSTFRVVSVLTVVHQDWLNGKEYKCKVSNKGLPAPIEKTISKTKGQPREPQVYTLPPSREEMTKNQVSLTCLVKGFYPSDIAVEWESNGQPENNYKTTPPMLDSDGSFFLYSKLTVDKSRWQQGNVFSCSVMHEALHNHYTQKSLSLSPG
modifications: homodimer
notes: dimer of an insulin receptor agonist fused to a human IgG Fc region
- Tm, Onset ([1]; Citrate 10 mM, NaCl 25 mM, pH 5.5): 60.29 °C
- Tm, Onset ([1]; Citrate 10 mM, NaCl 25 mM, pH 6.0): 63.58 °C
- Tm, Onset ([1]; Citrate 10 mM, NaCl 25 mM, pH 6.5): 65.61 °C
- Tm, Onset ([1]; Citrate 10 mM, NaCl 25 mM, pH 7.0): 66.32 °C
- Tm, Onset ([1]; Citrate 10 mM, NaCl 150 mM, pH 5.5): 59.59 °C
- Tm, Onset ([1]; Citrate 10 mM, NaCl 150 mM, pH 6.0): 62.78 °C
- Tm, Onset ([1]; Citrate 10 mM, NaCl 150 mM, pH 6.5): 64.76 °C
- Tm, Onset ([1]; Citrate 10 mM, NaCl 150 mM, pH 7.0): 65.41 °C
- Tm, Onset ([1]; Phosphate 10 mM, NaCl 25 mM, pH 6.0): 62.86 °C
- Tm, Onset ([1]; Phosphate 10 mM, NaCl 25 mM, pH 6.5): 64.06 °C
- Tm, Onset ([1]; Phosphate 10 mM, NaCl 25 mM, pH 7.0): 66.39 °C
- Tm, Onset ([1]; Phosphate 10 mM, NaCl 25 mM, pH 7.5): 66.90 °C
- Tm, Onset ([1]; Phosphate 10 mM, NaCl 150 mM, pH 6.0): 63.36 °C
- Tm, Onset ([1]; Phosphate 10 mM, NaCl 150 mM, pH 6.5): 64.42 °C
- Tm, Onset ([1]; Phosphate 10 mM, NaCl 150 mM, pH 7.0): 65.79 °C
- Tm, Onset ([1]; Phosphate 10 mM, NaCl 150 mM, pH 7.5): 66.11 °C
- pl (isoelectric point) of BIF (Isoelectric point of BIF): ≈ 6.1
